According to paper PMC2206725, “Characterization of a negative transcriptional element in the BRCA1 promoter”:

B1: UPFR6mUP (dsDNA)
DNA 1: CCTTCTTTTAAGTTTCAACGGAAAAGCGCGGGAATTACAG
DNA 2: CTGTAATTCCCGCGCTTTTCCGTTGAAACTTAAAAGAAGG
B2: UP (dsDNA)
DNA 1: CCTTGGTTTCCGTGGCAACGGAACCTT
DNA 2: AAGGTTCCGTTGCCACGGAAACCAAGG
B3: UPFR6 (dsDNA)
DNA 1: CCTTGGTTTCCGTGGCAACGGAAAAGCGCGGGAATTACAG
DNA 2: CTGTAATTCCCGCGCTTTTCCGTTGCCACGGAAACCAAGG
B4: UPFR6mGA (dsDNA)
DNA 1: CCTTGGTTTAAGTGGCAACGGAAAAGCGCGGGAATTACAG
DNA 2: CTGTAATTCCCGCGCTTTTCCGTTGCCACTTAAACCAAGG
B5: UPFR6mUS (dsDNA)
DNA 1: CCTTGGTTTCCGTGGCGGTTTAAAAGCGCGGGAATTACAG
DNA 2: CTGTAATTCCCGCGCTTTTAAACCGCCACGGAAACCAAGG
B6: UPFR6mGAmUS (dsDNA)
DNA 1: CCTTGGTTTAAGTGGCGGTTTAAAAGCGCGGGAATTACAG
DNA 2: CTGTAATTCCCGCGCTTTTAAACCGCCACTTAAACCAAGG

What follows are binders tested against GABP alpha (MBP fusion from pMAL-C2);GABP beta (MBP fusion from pMAL-C2) (Homo sapiens;Homo sapiens, UniProt Q06546;Q06547 1-454;1-395, |) (assay: EMSA; Bandshift conditions as in ref [16], not given; 6% nondenaturing acrylamide gel; recombinant proteins eluted in 25 mM HEPES pH 7.6, 0.1 mM EDTA, 40 mM KCl, 10%). Details: protein: recombinant;recombinant; tags: MBP N-terminal (pMAL-C2 vector);MBP N-terminal (pMAL-C2 vector); copies: 1;1; label: 32P.
Chain of GABP alpha (MBP fusion from pMAL-C2);GABP beta (MBP fusion from pMAL-C2) (Q06546 whole entry, chain 1 of 2, the tested form may be a part): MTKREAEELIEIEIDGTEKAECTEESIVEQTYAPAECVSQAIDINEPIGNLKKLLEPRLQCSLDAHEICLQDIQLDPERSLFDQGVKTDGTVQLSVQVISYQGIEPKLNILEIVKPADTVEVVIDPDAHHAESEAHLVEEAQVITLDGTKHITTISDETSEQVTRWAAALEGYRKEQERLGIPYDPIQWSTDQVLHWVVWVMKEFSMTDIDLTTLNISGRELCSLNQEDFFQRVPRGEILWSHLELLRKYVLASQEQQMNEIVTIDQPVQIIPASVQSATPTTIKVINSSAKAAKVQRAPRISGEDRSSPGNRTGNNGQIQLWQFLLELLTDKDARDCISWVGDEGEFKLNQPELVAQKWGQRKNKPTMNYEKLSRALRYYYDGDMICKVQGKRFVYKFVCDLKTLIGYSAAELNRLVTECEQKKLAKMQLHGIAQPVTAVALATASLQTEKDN
Chain of GABP alpha (MBP fusion from pMAL-C2);GABP beta (MBP fusion from pMAL-C2) (Q06547 whole entry, chain 2 of 2, the tested form may be a part): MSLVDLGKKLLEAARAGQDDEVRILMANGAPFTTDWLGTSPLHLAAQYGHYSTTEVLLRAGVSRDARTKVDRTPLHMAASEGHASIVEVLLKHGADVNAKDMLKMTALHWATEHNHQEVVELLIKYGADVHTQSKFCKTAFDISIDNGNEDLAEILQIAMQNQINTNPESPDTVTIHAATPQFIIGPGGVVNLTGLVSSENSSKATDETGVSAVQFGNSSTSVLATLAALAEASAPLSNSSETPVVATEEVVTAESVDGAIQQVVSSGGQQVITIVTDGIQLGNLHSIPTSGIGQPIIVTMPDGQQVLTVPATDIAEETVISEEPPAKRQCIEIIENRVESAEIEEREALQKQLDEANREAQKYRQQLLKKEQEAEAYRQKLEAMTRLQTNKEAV

Binder	binding result
B1	no binding
B2	binds
B3	binds
B4	no binding
B5	binds
B6	no binding
